Results published in article PMC7083622.

T1: Zscan4(ZnF) (Mus musculus, UniProt Q80VJ6 369-506)
T1 sequence: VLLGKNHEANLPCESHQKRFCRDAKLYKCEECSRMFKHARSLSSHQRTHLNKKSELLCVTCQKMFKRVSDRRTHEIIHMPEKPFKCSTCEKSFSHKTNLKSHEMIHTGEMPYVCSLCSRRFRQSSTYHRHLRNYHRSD

B1: (GC)n oligo (dsDNA)
DNA 1: TCGCGCGTCGCGCGTCGCGCGC
DNA 2: GCGCGCGACGCGCGACGCGCGA
B2: (TG)n oligo (dsDNA)
DNA 1: TGTGTGCATCTGTGTGCATCAT
DNA 2: ATGATGCACACAGATGCACACA

Experiments:
[1] = target: T1, Zscan4(ZnF); experiment: EMSA
[2] = target: T1, Zscan4(ZnF); experiment: EMSA; remark: listed apart in the source

Binder | binding result [1] | Kd [2] [µM]
B1 | no binding | 
B2 |  | ~500
